Reference: patent US20080045455A1 (TRANSTECH PHARMA, published 2008)

Tests used:
[1] = molecular target: Fc receptor on THP-1 cells; experiment: cell-based or functional assay
[2] = molecular target: T1, BSA (UniProt P02769 25-607); experiment: ELISA, BSA-coated Maxisorb plate, dilutions of fusion protein, anti-human IgG1 immunodetection complex, A405
T1 construct: also called BSA coating alone; BSA+wash
Protocol: Known RAGE ligands were coated onto the surface of Maxisorb plates at a concentration of 5 micrograms per well. Plates were incubated at 4° C. overnight. Following ligand incubation, plates were aspirated and a blocking buffer of 1% BSA in 50 mM imidizole buffer (pH 7.2) was added to the plates for 1 hour at room temperature. The plates were then aspirated and/or washed with wash buffer (20 mM Imidizole, 150 mM NaCl, 0.05% Tween-20, 5 mM CaCl₂ and 5 mM MgCl₂, pH 7.2). […] The RAGE fusion protein was added at increasing dilutions of the initial sample. The RAGE fusion protein was allowed to incubate with the immobilized ligand at 37° C. for one hour after which the plate was washed and assayed for binding of the RAGE fusion protein. Binding was detected by the addition of an immunodetection complex containing a monoclonal mouse anti-human IgG1 diluted 1:11,000 to a final assay concentration (FAC) of 21 ng/100 μL, a biotinylated goat anti-mouse IgG diluted 1:500, to a FAC of […], and an avidin-linked alkaline phosphatase. […] Binding of the complex to the immobilized RAGE fusion protein was quantified by measuring conversion of PNPP to para-nitrophenol (PNP) which was measured spectrophotometrically at 405 nm.

T1 sequence (P02769 25-607 limits assumed): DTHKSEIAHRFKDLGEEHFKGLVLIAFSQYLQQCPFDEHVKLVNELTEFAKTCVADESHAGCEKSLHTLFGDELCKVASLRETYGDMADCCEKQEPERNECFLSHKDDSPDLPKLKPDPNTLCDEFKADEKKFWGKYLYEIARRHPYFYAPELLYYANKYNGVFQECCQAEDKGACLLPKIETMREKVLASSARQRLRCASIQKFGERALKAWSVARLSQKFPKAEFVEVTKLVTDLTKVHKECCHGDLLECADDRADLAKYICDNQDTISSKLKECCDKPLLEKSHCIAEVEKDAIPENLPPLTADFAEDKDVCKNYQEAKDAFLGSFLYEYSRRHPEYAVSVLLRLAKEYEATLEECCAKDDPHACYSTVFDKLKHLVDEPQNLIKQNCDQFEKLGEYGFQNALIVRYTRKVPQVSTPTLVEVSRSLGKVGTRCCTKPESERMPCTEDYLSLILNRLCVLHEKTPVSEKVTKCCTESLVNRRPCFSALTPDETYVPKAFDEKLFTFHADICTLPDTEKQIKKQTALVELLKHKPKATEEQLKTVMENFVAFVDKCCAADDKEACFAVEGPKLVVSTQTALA

human IgG1 (heat aggregated) (antibody)
TNF-α secreted by THP-1 cells on wells coated with 10 ug/well heat aggregated protein [1]: > 40 ng/well

B1: RAGE fusion protein TTP-3000 (Fc fusion)
chain: QNITARIGEPLVLKCKGAPKKPPQRLEWKLNTGRTEAWKVLSPQGGGPWDSVARVLPNGSLFLPAVGIQDEGIFRCQAMNRNGKETKSNYRVRVYQIPGKPEIVDSASELTAGPSVFLFPPKPKDTLMISRTPEVTCVVVDVSHEDPEVKFNWYVDGVEVHNAKTKPREEQYNSTYRVVSVLTVLHQDWLNGKEYKCKVSNKALPAPIEKTISKAKGQPREPQVYTLPPSRDELTKNQVSLTCLVKGFYPSDIAVEWESNGQPENNYKTTPPVLDSDGSFFLYSKLTVDKSRWQQGNVFSCSVMHEALHNHYTQKSLSLSPGK
modifications: N-terminal residue may be glutamine (Q) or pyroglutamic acid (pE) or a mixture thereof; C-terminal residue may be cleaved off
notes: the N-terminus of TTP-3000 was not confirmed by experiment; also called TT3; three domain RAGE fusion protein
binding result [2]: no binding

B2: RAGE fusion protein TTP-4000 (Fc fusion)
chain: QNITARIGEPLVLKCKGAPKKPPQRLEWKLNTGRTEAWKVLSPQGGGPWDSVARVLPNGSLFLPAVGIQDEGIFRCQAMNRNGKETKSNYRVRVYQIPGKPEIVDSASELTAGVPNKVGTCVSEGSYPAGTLSWHLDGKPLVPNEKGVSVKEQTRRHPETGLFTLQSELMVTPARGGDPRPTFSCSFSPGLPRHRALRTAPIQPRVWEPVPLEEVQLVVEPEGGAVAPPSVFLFPPKPKDTLMISRTPEVTCVVVDVSHEDPEVKFNWYVDGVEVHNAKTKPREEQYNSTYRVVSVLTVLHQDWLNGKEYKCKVSNKALPAPIEKTISKAKGQPREPQVYTLPPSRDELTKNQVSLTCLVKGFYPSDIAVEWESNGQPENNYKTTPPVLDSDGSFFLYSKLTVDKSRWQQGNVFSCSVMHEALHNHYTQKSLSLSPGK
modifications: N-terminal residue glutamine (Q) or pyroglutamic acid (pE) or a mixture thereof; glycosylation sites at N2 and N288 (numbering of SEQ ID NO: 34 or 56); C-terminal residue of CH3 may be cleaved off
notes: Produced in CHO cells; also called TT4; four domain RAGE fusion protein
binding result [2]: no binding
